One experiment addresses CFP-Kv2.1-K470Q (rat). Put plainly: FRET or BRET. In general terms: Bioluminescence resonance energy transfer reports proximity on the nanometre scale.
Another experiment concerns the target CFP-Kv2.1 (rat) (UniProt P15387). Put plainly: FRET or BRET.
The target of a further experiment is GFP-Kv2.1-K470Q (rat). Briefly: TIRF single-particle photobleaching step counting.
Experiment [1] has as its target Gln-Lys-Lys-Gln tetrameric Kv2.1 construct (rat). Put plainly: TIRF single-particle photobleaching step counting.
The target in experiment [2] is Gln-Lys-Gln-Gln tetrameric Kv2.1 construct (rat). Put plainly: TIRF single-particle photobleaching step counting.
The target in experiment [3] is Lys-Gln-Gln-Gln tetrameric Kv2.1 construct (rat). Put plainly: TIRF single-particle photobleaching step counting.

With YFP-Kv2.1-K470Q (natural protein), in the experiment with CFP-Kv2.1-K470Q (rat), the CFP donor photobleaching decay time constant (tau) came out at 26.2 s.

Consider “YFP-Ubc9 (from UniProt P63279 1-158) (enzyme)”, for which the CFP donor photobleaching decay time constant (tau) with CFP-Kv2.1 (rat) was determined as 23.2 s.

For the substance GFP-Kv2.1-K470Q (natural protein), the stoichiometry N (as a rule, the number of molecules, sites or subunits per partner or assembly) with GFP-Kv2.1-K470Q (rat) was 4.

Consider “GFP-SUMO1_(101) (from UniProt P63165 1-101) (natural protein)”, for which the stoichiometry N in experiment [1], in experiment [2] and in experiment [3] was 1 throughout.

These data come from paper PMC3082930.
